Measurements from paper PMC10397247.

Assays:
Test in all cases: two-hybrid library CCNG1;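 note: natural log of median RNA to DNA barcode read ratio; higher means stronger binding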
[1] = target: T1, 4H3041-bH
T1 chain: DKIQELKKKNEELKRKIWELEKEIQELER

[2] = target: T2, 4H2233-bH
T2 chain: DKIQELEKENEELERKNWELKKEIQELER

[3] = target: T3, 4H2444-bH
T3 chain: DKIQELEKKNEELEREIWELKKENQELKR

[4] = target: T4, 4H2253-bH
T4 chain: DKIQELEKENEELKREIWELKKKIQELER

[5] = target: T5, 4H730-bH
T5 chain: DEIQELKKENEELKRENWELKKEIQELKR

[6] = target: T6, 4H796-bH
T6 chain: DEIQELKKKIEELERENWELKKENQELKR

[7] = target: T7, 4H2760-bH
T7 chain: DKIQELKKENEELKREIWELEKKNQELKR

[8] = target: T8, 4H2585-bH
T8 chain: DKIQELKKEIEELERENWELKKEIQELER

[9] = target: T9, 4H319-bH
T9 chain: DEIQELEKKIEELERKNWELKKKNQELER

[10] = target: T10, 4H3297-bH
T10 chain: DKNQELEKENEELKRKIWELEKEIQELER

[11] = target: T11, 4H349-bH
T11 chain: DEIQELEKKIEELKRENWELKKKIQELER

[12] = target: T12, 4H3381-bH
T12 chain: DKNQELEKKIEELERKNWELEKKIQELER

[13] = target: T13, 4H2931-bH
T13 chain: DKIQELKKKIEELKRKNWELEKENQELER

[14] = target: T14, 4H2859-bH
T14 chain: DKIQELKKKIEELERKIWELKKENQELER

[15] = target: T15, 4H56-bH
T15 chain: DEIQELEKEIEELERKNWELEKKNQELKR

[16] = target: T16, 4H235-bH
T16 chain: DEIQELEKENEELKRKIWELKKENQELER

[17] = target: T17, 4H949-bH
T17 chain: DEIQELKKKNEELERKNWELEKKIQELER

[18] = target: T18, 4H264-bH
T18 chain: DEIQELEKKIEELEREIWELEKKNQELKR

[19] = target: T19, 4H2518-bH
T19 chain: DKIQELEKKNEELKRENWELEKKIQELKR

[20] = target: T20, 4H932-bH
T20 chain: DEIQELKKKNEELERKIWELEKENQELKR

[21] = target: T21, 4H3364-bH
T21 chain: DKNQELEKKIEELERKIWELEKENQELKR

[22] = target: T22, O5
T22 chain: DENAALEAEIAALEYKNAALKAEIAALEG

interaction score [1]: -0.641 | interaction score [2]: 0.18 | interaction score [3]: -0.446 | interaction score [4]: -0.0513 | interaction score [5]: -0.961 | interaction score [6]: -0.815 | interaction score [7]: -0.804 | interaction score [8]: -0.529 | interaction score [9]: -0.931 | interaction score [10]: -0.069 | interaction score [11]: 0.0715 | interaction score [12]: -0.723 | interaction score [13]: -0.862 | interaction score [14]: -0.442 | interaction score [15]: -1.28 | interaction score [16]: -0.93 | interaction score [17]: -0.96 | interaction score [18]: -0.0896 | interaction score [19]: 1.4 | interaction score [20]: -1.01 | interaction score [21]: -0.899 | interaction score [22]: -1.37
Binder: DKIQELEKENEELERKNWELKKEIQELER [4H2233-bH]
